“And” between values parts separate entries of the source, which are not always exact repeats. Equal values may be shown once.
Columns and labels:
[1] = target: Soluble U20 extracellular domain (sU20) of HHV-6B (HHV-6B); test: SEC-MALS; U20 with intact high mannose glycans, alone; 1 mg/ml, PBS, room temperature
ULBP1-Fc [2] = test: SPR; Biacore 3000; biotinylated ULBP1-Fc (1000-2500 RU) on a Neutravidin coated CM5 chip; U20 injected at 0.125-32 μM; CD200 receptor Fc flow cell subtracted; equilibrium fit, one site specific binding, apparent; 20°C
[3] = target: ULBP1 on transduced HEK293 cells (UniProt Q9BZM6); test: flow cytometry on cells; ULBP1 (or ULBP3) HEK293 cells pretreated with sU20 at various concentrations for 5 minutes on ice, then stained with 5 nM NKG2D-Fc
[4] = target: ULBP1-6xHIS soluble construct (ULBP1-6H); test: SEC-SAXS; equimolar mixture of EndoH-treated U20 and ULBP1-6H, 4.5 mg/mL, Superdex 200 Increase 5/150 GL in line with SAXS
ULBP1-Fc [5] = test: SEC-MALS; EndoH-deglycosylated U20 with ULBP1-Fc; 1 mg/ml, PBS, room temperature, WTC-030S5 column
[6] = target: ULBP1 on transduced HEK293 cells (UniProt Q9BZM6); test: flow cytometry on cells; ULBP1 expressing cells pretreated with soluble U20 at various concentrations, then stained with APC conjugated anti-ULBP1 (R&D Systems FAB1380A)
[7] = target: Soluble U20 extracellular domain (sU20) of HHV-6B (HHV-6B); test: SEC-SAXS; EndoH-treated U20 alone, 4.5 mg/mL, Superdex 200 Increase 5/150 GL in line with SAXS; mass by Porod volume
[8] = target: Soluble U20 extracellular domain (sU20) of HHV-6B (HHV-6B); test: SEC-MALS; EndoH-treated U20 alone; 1 mg/ml, PBS, room temperature
NKG2D-Fc = NKG2D-Fc (UniProt P26718); test: SPR; format not told in the text (Supplementary Figure S1A)
NKG2D-Fc, sequence (P26718 73-216): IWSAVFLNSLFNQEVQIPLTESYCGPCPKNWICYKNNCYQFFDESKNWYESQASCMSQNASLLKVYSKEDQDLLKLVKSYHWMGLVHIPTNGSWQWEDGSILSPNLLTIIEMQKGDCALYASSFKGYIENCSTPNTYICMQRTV

Soluble U20 extracellular domain (sU20) of HHV-6B (domain or fragment), sequence (Q9QJ46 16-321 limits assumed): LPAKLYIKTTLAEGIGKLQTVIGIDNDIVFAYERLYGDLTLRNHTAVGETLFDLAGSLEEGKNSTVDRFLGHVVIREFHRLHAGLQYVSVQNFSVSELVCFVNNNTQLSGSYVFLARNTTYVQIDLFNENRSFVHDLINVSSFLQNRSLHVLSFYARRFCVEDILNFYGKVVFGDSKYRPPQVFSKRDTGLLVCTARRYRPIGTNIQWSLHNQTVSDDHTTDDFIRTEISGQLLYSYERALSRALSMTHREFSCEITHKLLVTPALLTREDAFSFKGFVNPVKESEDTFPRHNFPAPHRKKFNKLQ

Substance | stoichiometry N [1] | dissociation half-life (ULBP1-Fc [2]) | decrease in NKG2D-Fc binding to ULBP1 cells at 5 μM sU20 [3] | stoichiometry N [4] | stoichiometry N (ULBP1-Fc [5]) | reduction of anti-ULBP1 antibody binding to ULBP1 cells at 0.125 μM sU20 [6] | stoichiometry N [7] | stoichiometry N [8] | Kd (NKG2D-Fc)
Soluble U20 extracellular domain (sU20) of HHV-6B (domain or fragment) | 2 | 1.05 min and 2.07 min | 90% | 1 | 1 | 60% | 2 | 2 | –
ULBP1-6xHIS soluble construct (ULBP1-6H) (domain or fragment) | – | – | – | – | – | – | – | – | 1 µM
